Assay: soluble on expression in E. coli; label from the status in PepcDB or PDB records

MGSDKIHHHHHHMAWLLVGTKKYEDFEKNERVNRWYLNVRARSPISADIWRRSLLRYCTINNTTPEGLLDMAQKGTLKDNFQDFTIRMIAEGRRGAYLAKVKEILHSWIRFNDIDYKIRINIPNERLNETTMDERVPTKEELSKILRMGTVRSRVSVSLMAFSGLRPEVLGNYEGTDGLTLGDIEDLDIDTLTFKNVPAKINVRNGLSKTRLKYFTFLGQEGCGYLKDYLDHRKASGEILKKESALLAPDPGNVQTAHGFLRTALIAREIRKAIRNSNLSMRPYVLRVYFATALDIAESKGSISHPWRQYIMGHKGDIEATYSTNKRLLPETIEGMRSAYLKCTKFFETEEKGIKEEDYQKMLRDSAIDTLTGAFGITLTDDQKEELRNLDTAEYQKRLGEIFKDRKADLLNNGNSQKVIPFKDVEKYIEQGWEYVRDFPGNKAIVRLPS
soluble on expression in E. coli: not soluble

MSLTKFHGVFPPVPTIVNAQGELDKVGMATLLDHLIASKVNGVLLLGSGGEFCHMTNALRLETAEFCVRHINRRIPVLLGISSTSTQEVIEYGQHADRLEVDAVLVLNPYYARLTDEYIYHHFKTVANNIKSPVILYNFPALTGQDLSVDLITRLAQDHPNIIGIKDTVDNISHIREIINNVRPVRPDFVIFSGYDEYMMDTLILGGNGGIPATANFAPQLTCGIYRAWCEKEYETMFGLQRRLSALSTIYSLDSPFFGIIKKAIQLSGVDISTHVMPPVLPANEEHISNLKQILQRAGLEGHHHHHH
soluble on expression in E. coli: soluble

ASEKVGMNLVTAQGVGQSIGTVVIDETEGGLKFTPHLKALPPGEHGFHIHANGSCQPAIKDGQAVAAEAAGGHLDPQNTGKHEGPEGQGHLGDLPVLVVNNDGIATEPVTAPRLKSLDEVKDKALMIHVGGDNMSDQPKPLGGGGTRYACGVIK
soluble on expression in E. coli: soluble

MSLEMEHINENTIRVLIGNEDLADRGITFLDLLGNHKDVENFFYSILEEVDVEDEFQGSEAVTFQVLPKNDGLELFISKNVAMDDLSSLEGLSEVNADVSELIRKQIEADKAAADELDEMEATDETNRNVIFELDNFEAMIQLSKEVFMQSVLTNLYTYNDRYYLQVLFLTDELEKTNVDNEIAQILEFAHKTTVTQDTLVEYGTCIMERSALELTRYYFNDEGHHHHHH
soluble on expression in E. coli: soluble

MRSYFLIFILILLLEIREVWSWKAPYLRDRPRGLGLLQLPTGISDERSGPFLPGLYIAGNKVNQKPQTVPDVHLPGQPADFTGRSAFNPFTHMVSAVYAEDLSDGWGAGMAVNGVNGHGLNVRKNFDSYADVPLNLNDGMYQPFIAAATVGGEYDLSKMREVSGSLDLPIPGVNELFDLNARILVKTFLLHNSAIEFPLTLSDPNERAPYNFRYAVWAPDRHMAYGHVVPNVNPYVIGKDKIMERLMQNRLNPTMVG
soluble on expression in E. coli: not soluble

MSLSMLEKVSFSTTPDFELGFEHCPRQTDYLIAQPKERAKGLVVYIPGFGDDAGEYREKFCLKVAEKYDLAAMTVDYHCFYSRPEVHSATAYEAEDVALIEKLFLAHNLPFAGDTIEEGIEILNKHLASHNQKASITATLIPGKDEYQNAGVLQALDIINAVGHAIEKYSIPAENVILIGSSYGGYIANLATKFAPKTFRAVFDNSSWAQPHFTYIVGREYGYPELIHKTHSHIATKLFLRTAWTLKKGLPNTFDGKRFYVRTFSEDQLGQFSSYEPETYYYFIHAEKDKLALTEHKIQMATYMIQREMNVHMEVMEAADIDGQYIKTIEHGMNLSMLTFFDKAYAHINDHTISLENDFMNGSLVGYDSGDHRYEFDFSTFPVTGRVTQKAVAEGHHHHHH
soluble on expression in E. coli: soluble

MGSDKIHHHHHHMRIAIIAITRNGARLGTQLRDGLGSAELYVLQKFAGQAGTGAVPFAGELKGLVAELWPAFDGFVFIMATGIVVRMVAPHLVAKDLDPAVVVMDDAGKFAVSLLSGHLGGANELACRCAFVTGAREVITTATDANNLPSFDMLAKEEGWAIDDLCRVKTLNALILEGEEIAVVDPTDRVRTAFHGTARLTFHDTFVEALQSGAKGFVFVTNRRLPPQAQADSLLILRPRNLALGIGCNSGTGAEEIAAVVGAQMKRLFLSLKSVACIGSAVAKQDEAGLLAFAREHGLPLRFFESGELNSVTVPSPPSAHALEAIGATGVAEPAAVLASNGGRLLLKKIKSGNVTLAIAEIP
soluble on expression in E. coli: not soluble

MGSDKIHHHHHHMNVENQSLSDIEIILSHRYDNGADYWTTPDKRLIKGSPFSTLDSVLYLLELGVNPDDTLLKECADLIFSTWREDGRFKLYPNGGIYPCHTANAANVLCHMGYASDIRMQKTFQHFLDTQYTDGGWRCNKFSFGRGPETEYSNPLPTLNILNAFRFSNYLNKESKLDKAVDFLLDHWTIKKPIGPCHYGIGTLFMQVEYPFRNYNLFLYVYVLSFYSRAKKDKRFLEALKILESKMIGNKIVVERVVPKLSKLSFCKKGESSEIATTHYYEILKNLDK
soluble on expression in E. coli: not soluble

ARKLFVLDTNVLLHDPSSLFRFEEHDIFLPMMTLEELDHQKKGMSEVARNARQVSRSLDSLVQDADNLDDGLALNALGNKDATGRLMFQTTAIHSTLPSDLPMGKADNQILGVVRALQERHPQREVVLVSKDINMRLKARALGMAAEDYYNDHVLEDTDLMYS
soluble on expression in E. coli: not soluble

SNAMATNLIGLDTTQSQKLANALNNLLANYQVFYMNTRGYHWNIQGKEFFELHAKFEEIYTDLQLKIDELAERILTLSARPMHSFSGYLKAAQIKEHTDSIDGRSSMQGLVDGFSILLHQQRDILELAGETGDEGTSALMSDYIREQEKLVWMLNAWLK
soluble on expression in E. coli: soluble

SLGNSYAGQLKTTRFEEVLHNSIEASLRSNNLVPRPIFSQLYLEAEQQLAALEGGSRVDNEEEEEEGEGGLETNGPPNPFQLHPLPEGCCTTDGFCQAGKDLRLVSISNEPMDVPAGFLLVGVKSPSLPDHLLVCAVDKRFLPDDNGHNALLGFSGNCVGCGKKGFCYFTEFSNHINLKLTTQPKKQKHLKYYLVRNAQGTLTKGPLICWKGSEFRSRQIPASTCSSSLFPALESTAAFPSEPVPGTNPSILMGAQQAGPASDHPSLNAAMGPAVFNGKDSPKCQQLAKNNLLALPRPSALGILSNSGPPKKRHKGWSPESEG
soluble on expression in E. coli: soluble

KVWWTLPYGPHEDEKNLTLEDWRDRVLDSTREAVAIRQRAAVDVGVLLSGGVDSSMLVGLLREVGVEDLSTFSIGFQDAGGERGDEFQYSDLIAKHYGTRHHQLRIQESEIIEQLPAAFRAMSEPMVSHDCIAFYLLSREVAKHCKVVQSGQGADELFAGYHWYPQVDGASDPVAAYRYAFVDRSYAEYADTVQPKWRTANDAAGDFVRDHFAQPGASAAVDKALRLDSTVMLVDDPVKRVDNMTMAWGLEARTPFLDYRLVELSARIPGKFKLPDGGKQVLKEAARLVIPSEVIDRKKGYFPVPGLKHLQGDTLNWVRELLTDPSQDRGLFNPTMVDKLLTNPEGQLTPLRGSKLWQLAALNLWLSEQ
soluble on expression in E. coli: not soluble

MRDIQMVLERWGAWAANNHEDVTWSSIAAGFKGLITSKVKSRPQCCDDDAMIICGCMARLKKNNSDLHDLLVDYYVVGMTFMSLAGKHCCSDGYIGKRLQKAEGIIEGMLMALDIRLEMDIVVNNSNLEHHHHHH
soluble on expression in E. coli: not soluble

MRGSHSGAQGLLAAQKARGLFKDFFPETGTKIELPELFDRGTASFPQTIYCGFDPTADSLHVGHLLALLGLFHLQRAGHNVIALVGGATARLGDPSGRTKEREALETERVRANARALRLGLEALAANHQQLFTDGRSWGSFTVLDNSAWYQKQHLVDFLAAVGGHFRMGTLLSRQSVQLRLKSPEGMSLAEFFYQVLQAYDFYYLFQRYGCRVQLGGSDQLGNIMSGYEFINKLTGEDVFGITVPLITSTTGAKLGKSAGNAVWLNRDKTSPFELYQFFVRQPDDSVERYLKLFTFLPLPEIDHIMQLHVKEPERRGPQKRLAAEVTKLVHGREGLDSAKRCTQALYHRSHHHHHH
soluble on expression in E. coli: soluble

MSLNRPEADREALWKIVHDRCEFGYRRTGAYAPCTFVDEQSGTALYKADFDPYQFLLIPLARITGIEDPALRESAGRNYLYDAWAARFLVTARLNNSLPESDVVLTINPKNARTQDQLHIHISCSSPTTSAALRNVDTSEYVGWKQLPIDLGGRRFQGLAVDTKAFESRNLFRDIYLKVTADGKKMENASIAVANVAQDQFLLLLAEGTEDQPVAAETLQDHDCSITKSEGHHHHHH
soluble on expression in E. coli: not soluble

MSLAFVPHVPRHSRGDNPPSASTASPAVLTLTGERTIPDLDIENYWFRRHQVVYQRLAPRCTARDVLEAGCGEGYGADLIACVARQVIAVDYDETAVAHVRSRYPRVEVMQANLAELPLPDASVDVVVNFQVIEHLWDQARFVRECARVLRGSGLLMVSTPNRITFSPGRDTPINPFHTRELNADELTSLLIDAGFVDVAMCGLFHGPRLRDMDARHGGSIIDAQIMRAVAGEGHHHHHH
soluble on expression in E. coli: not soluble

YNVLENEELRFQLTIQKEQIEFQRNKYEQLGAAYKNIRSFMHDTKKHLFYIENCVTEKKYDDIIPYSKEIMHDLESRYCTINTGNLVIDAFVSNLLLQTKAQGITLHTNLKFDKATIPVNDYHLTIILGNLLDNALNACRGQIGANIKVAVRTVDGTFTIHVANTYVIADPDKAPDDFEKIDFIHGYGLKNVKDSAEACGGFCVIHHENDVYSATVIIPILNP
soluble on expression in E. coli: not soluble

MLYDLAKQRKTVRKFKEEKPSIEKLMYCLKVANEAPSGMNAQPWRFLVVKDEETKRQIRETCEKAEKDFYENVRGKLKEWLNENSFNWKKPFLEEAPYLLLVFSKKDAPYSRESVWLAIGYLLLALEEQGLGTVPYTPPNPNELTKIVNTPSDLRFEVILPVGYPDDPKPKYPREEMKVSFNHF
soluble on expression in E. coli: not soluble

MGSDKIHHHHHHMKIYLVGGAVRDSLLGLPVTEKDWVVVGATPEHLLAQGYQQVGKDFPVFLHPISRDEYALARTERKSGKGYTGFVCHAEPDVTLEQDLLRRDLTINAIARTERGDLIDPYHGRRDLDNRVLRHVSDAFSEDPLRVLRVARFAARFAHLGFQIAEETMALMQKMAHEGELAFLTPERVWKETEKALGTSSPDVYFQVLRDCGALAVLFPEIDNLYGVPAPAKWHPEIDTGIHTMMTVAMAARLSPDIDVRFATLCHDLGKGLTPPELWPRHLGHGPAGVKLVEALCQRLRVPNPIRDLAKLVAEYHDLVHTVQVLQPKTLLKLFDAIDVWRKPQRLEQLALTSEADARGRTSFEENPYPQGNYLREAFRVASQVSSASVVADGFKGIDVRNELARRRIHALADWKAQQPDVSSTS
soluble on expression in E. coli: not soluble

MGYIVDISKWNGNINWDVAAPQLDFVIARVQDGSNYIDPLYKSYVQAMKTRNIPFGNYAFCRFISIADAKKEAQDFWNRGDKSATVWVADVEVKTMDDMIAGTQAFIDELRRLGAKKVGLYVGHHMYGPFGMANVKSDFVWIPRYGGNKPAYPCDIWQYTETGNVPGIGKCDLNQLIGNKPLSWFTESVPKQENIQAQVSKQNIIQSGAFSPYETPDVMGALTSLKMTATFILQSDGLTYFVTEPTSDTQLNALKSWLDRKGWWYEVK
soluble on expression in E. coli: not soluble

SLVVAIDPGHGGQDSGAVGPTGKLEKNVTLAIGRELARQINATPGMKAYMTRDSDVFIPLPMRAQRARAAKADIFISIHADAADNRAATGSSVYVLSTRGASSQRARWLADKENAADLVGGVRLQKAEPTLANVLLDLAQSGYMKASEDAADHVLGSLKRVANNHKSEVEHANFAVLRTSDMPAMLVETAFISNAYEERRLVDPAFQRQLAAAVLEGVITFFTNQPPPGTLFALRAQAEPATTGGSVITSTH
soluble on expression in E. coli: not soluble

MSLRLGIILHGVTGRMGYNQHLVRSVLAIRDQGGIMLKSGGRLEIDPIIVGRNRDKIEQLAKRHDIARWSTDLDAALADPNDQIFFDAGTTLMRAELIGRALDAGKHVYCEKPVSDDLRTAVKLARKARASGLKHGVVQDKLFLPGLQKLALLRDSGFFGKILSVRGEFGYWVFEGDWGVPAQRPSWNYRKKDGGGIILDMLCHWRYVLDNLFGEVKAVSCLGATHISSRIDEQGRAYDCDTDDAAYATFELEGGVIAQINSSWTVRVRRDDLVTFQVDGTHGSAVAGLTKCWTQHRVNTPKPVWNPDQPQTIDFYETWDEVPDTQAFDNGFKAQWEMFLRHVAEDSPWPYGLEAGAKGVQLAELGLKSWAERRWLDVPELEEGHHHHHH
soluble on expression in E. coli: soluble
